In patent publication US20050064514A1:
“And” between values parts separate entries of the source, which are not always exact repeats. Equal entries are not always repeated.

What was measured:
[1] = molecular target: soluble monomeric FcγRIIIA-linker-AVITAG (158V allele) (human) (UniProt P08637); assay: BIAcore
[2] = molecular target: soluble monomeric FcγRIIIA-linker-AVITAG (158V allele) (human) (UniProt P08637); assay: BIAcore separate fit
[3] = molecular target: wild type CH1-CH3 Fc fusion protein displayed on yeast (pYD-CH1) (Saccharomyces cerevisiae; human) (UniProt P32781); assay: FACS titration 1.4 to 0.0006 µM, mean fluorescence, nonlinear regression
[4] = molecular target: FcγRIIB-Fc fusion protein (soluble dimeric FcγRIIB) (human) (UniProt P31994); assay: BIAcore
Sequence of FcγRIIB-Fc fusion protein (soluble dimeric FcγRIIB) (human) (P31994 43-217): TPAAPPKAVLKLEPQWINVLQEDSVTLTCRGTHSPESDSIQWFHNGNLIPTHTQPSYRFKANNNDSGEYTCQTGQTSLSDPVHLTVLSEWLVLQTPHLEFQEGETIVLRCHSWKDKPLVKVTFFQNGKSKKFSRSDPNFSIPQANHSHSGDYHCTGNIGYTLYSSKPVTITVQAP

[5] = molecular target: FcγRIIB-Fc fusion protein (soluble dimeric FcγRIIB) (human) (UniProt P31994); assay: BIAcore separate fit
[6] = molecular target: soluble monomeric FcγRIIIA-linker-AVITAG (158V allele) (human) (UniProt P08637); assay: ELISA
[7] = molecular target: soluble FcγRIIB (form used in the ELISA not stated) (human) (UniProt P31994); assay: ELISA
Sequence of soluble FcγRIIB (form used in the ELISA not stated) (human) (P31994 43-180 limits assumed, form in doubt): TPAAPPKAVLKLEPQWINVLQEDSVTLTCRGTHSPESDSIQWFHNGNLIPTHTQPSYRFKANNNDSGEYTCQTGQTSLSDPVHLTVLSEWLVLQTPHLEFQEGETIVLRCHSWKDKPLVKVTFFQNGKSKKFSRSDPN

[8] = molecular target: soluble monomeric FcγRIIIA-linker-AVITAG (158V allele) (human) (UniProt P08637); assay: FACS, 0.1 µM biotinylated FcγRIIIA then 0.1 µM unlabeled FcγRIIIA

Sequence of soluble monomeric FcγRIIIA-linker-AVITAG (158V allele) (human) (P08637 17-203 F176V limits assumed, form in doubt): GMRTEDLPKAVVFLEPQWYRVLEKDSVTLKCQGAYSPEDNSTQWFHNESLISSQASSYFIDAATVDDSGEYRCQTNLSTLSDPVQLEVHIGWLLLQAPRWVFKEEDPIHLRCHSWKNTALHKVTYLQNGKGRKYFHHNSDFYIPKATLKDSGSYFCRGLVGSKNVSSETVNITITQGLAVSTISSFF
Sequence of P396L Fc variant displayed on the yeast surface (P32781 19-87, stated change not applied): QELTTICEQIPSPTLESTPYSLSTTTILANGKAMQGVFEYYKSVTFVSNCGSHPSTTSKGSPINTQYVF

Substance	Kd [1]	Kd [2] [µM]	other results
ch4-4-20 K334E, R292L (from UniProt P01857 1-330) (antibody)	0.0702 µM	0.0702	
soluble FcγRIIIA tetrameric complex (from UniProt P08637 17-203) (receptor)			Kd [3]: 0.006 µM
chimeric 4-4-20 anti-fluorescein monoclonal antibody, wild type Fc			Kd [4]: 0.094 µM; koff [4]: 0.094 s⁻¹; Kd [5]: 0.0614 µM; koff [5]: 0.085 s⁻¹; ELISA binding relative to wt [6]: 1 x; ELISA, OD [6]: 0.5 OD; ELISA binding relative to wt [7]: 1 x; ELISA, OD [7]: 0.4 OD
ch4-4-20 Mut25(0225) (MgFc 25: E333A, K334A, S298A) (from UniProt P01857 1-330) (antibody)		0.0486	
ch4-4-20 G316D, A378V, D399E (from UniProt P01857 1-330) (antibody)	0.072 µM		
ch4-4-20 H268N, P396L (from UniProt P01857 1-330) (antibody)	0.178 µM		
ch4-4-20 P247L, N421K (from UniProt P01857 1-330) (antibody)	0.062 µM		
ch4-4-20 V379M (from UniProt P01857 1-330) (antibody)	0.16 µM	0.214	
P396L Fc variant displayed on the yeast surface (from UniProt P32781 19-87)			loss of cell staining after 1 minute with unlabeled receptor [8]: 50%
ch4-4-20 K288M, K334E (from UniProt P01857 1-330) (antibody)	0.0754 µM	0.0754	
ch4-4-20 Mut 6 (S219V) (from UniProt P01857 1-330) (antibody)		0.264	ELISA, OD [6]: 0.6 OD
ch4-4-20 Y319F, P352L, P396L (from UniProt P01857 1-330) (antibody)	0.125 µM		
ch4-4-20 K248M (from UniProt P01857 1-330) (antibody)	0.154 µM and 0.18 µM		
ch4-4-20 E293V, Q295E, A327T (from UniProt P01857 1-330) (antibody)	0.195 µM		
ch4-4-20 K334E, T359N, T366S (from UniProt P01857 1-330) (antibody)	0.0552 µM		
ch4-4-20 K288N, A330S, P396L (from UniProt P01857 1-330) (antibody)	0.128 µM	0.128	
